This note sets out measurements from PMC10672205, “Towards a High-Affinity Peptidomimetic Targeting Proliferating Cell Nuclear Antigen from Aspergillus fumigatus” (Journal of Fungi, 2023).

Read-outs that look alike come from different tables or passages of the source. Ends that are not written are not given here. Peptide text beside a SMILES is read from it.

One may read the Kd as the free concentration of one partner at which half of the binding sites on the other are occupied at equilibrium, for simple one-to-one binding.

For assay [1], the target named is afumPCNA (A. fumigatus PCNA) (Aspergillus fumigatus, UniProt A0A229Y5V5). Nature of the assay: biochemical. Type of assay: binding. The method, then: Surface plasmon resonance (SPR) experiments were performed as previously described. The running buffer used for ligand attachment and analyte-binding experiments was a 10 mM HEPES buffer with 150 mM NaCl, 3 mM EDTA, and 0.05% Tween-20, adjusted to pH 7.4 with 2 M NaOH. A GE CM5 (series S) sensor chip was primed with the running buffer and preconditioned with successive injections (2 × 50 s, 30 μL/min) of 50 mM NaOH, 10 mM HCl, 0.1% SDS, 0.85% H3PO4, and 50 mM glycine pH 9.5, respectively. The surface was then activated with an injection of 0.2 M 1-ethyl-3-(3-dimethylaminopropyl)carbodiimide (EDC) and 50 mM N-hydroxysuccinimide (NHS) (600 s, 10 μL/min). A. fumigatus PCNA (5 μL, 12 mg/mL) was diluted into the running buffer (245 μL). Upon the preactivation of the surface, the protein was further diluted to a final concentration of 25 μg/mL in 10 mM NaAc (~pH 4.6). This solution was immediately injected over the target flow cell (10 μL/min) to immobilize ~1500 RU. Both the target and reference flow cells were then blocked with 1.0 M ethanolamine at pH 8.5 (600 s, 10 μL/min). The chip was left to stabilize before sample injections commenced.
Peptide stock solutions for use in SPR experiments were prepared in MilliQ water. The peptide stock concentration was determined via 205 nm absorbance with NanoDrop2000. The ε205 for each peptide was calculated using an online calculator (http://nickanthis.com/tools/a205.html, accessed on 22 August 2022 [24]); however, additional glycine residue was added to each peptide sequence to account for the terminal amide of the peptides synthesized in-house. The peptide stock solution’s concentration was then calculated using Beer’s Law.
A 2-fold serial dilution was performed for each peptide, with 8 samples injected sequentially from the lowest to highest concentrations; they were preceded by a buffer-only blank injection. After each injection, the surface was regenerated with 2 M NaCl (2 × 30 s, 25 μL/min). All data were analyzed using the GE Biosystems Biacore S200 Evaluation Software, Version 1.0 (Build: 20).

The target of assay [2] is Aspergillus fumigatus proliferating cell nuclear antigen (Aspergillus fumigatus). Put plainly: SPR. (In general: SPR reads the build-up and loss of mass on a sensor chip optically.)
In assay [3] the target is T1, human proliferating cell nuclear antigen (human, UniProt P12004 1-259).
T1 construct: also called hPCNA; human PCNA
Put plainly: SPR; peptide against human PCNA, tested in triplicate; immobilisation of human PCNA not described here (SPR as previously described, ref. 18). The conditions noted are these: both partners purified.

The mark [4] stands for this setting: afumPCNA Binding Affinity KD (nM) ± SD (nM).
Setting [5] is: read-out: afumPCNA Binding Affinity KD (nM) ± SD, SPR steady-state affinity, afumPCNA immobilised on CM5 chip (~1500 RU), 10 mM HEPES, 150 mM NaCl, 3 mM EDTA, 0.05% Tween-20, pH 7.4, 8 x 2-fold dilutions, contact 40 s, dissociation 30 s, KD ± SD.
[6] abbreviates: afumPCNA Binding Affinity KD (nM) ± KD SD (nM).

T1 sequence (P12004 1-259): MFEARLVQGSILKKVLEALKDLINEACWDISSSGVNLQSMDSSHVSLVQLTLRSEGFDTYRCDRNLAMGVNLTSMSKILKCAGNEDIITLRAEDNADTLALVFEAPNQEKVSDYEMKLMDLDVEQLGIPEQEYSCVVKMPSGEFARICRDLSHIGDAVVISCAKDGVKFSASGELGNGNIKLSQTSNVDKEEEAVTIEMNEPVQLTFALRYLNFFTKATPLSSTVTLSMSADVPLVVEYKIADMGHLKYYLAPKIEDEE

In assay [1] (setting [4]), `CSCC[C@H](NC(=O)[C@H](CO)NC(=O)[C@@H](NC(=O)[C@H](CCC(N)=O)NC(=O)[C@H](CCCNC(=N)N)NC(=O)[C@H](CCCNC(=N)N)NC(=O)[C@@H](N)CCCCN)[C@@H](C)O)C(=O)N[C@H](C(=O)N[C@@H](CC(=O)O)C(=O)N[C@@H](Cc1ccc(O)cc1)C(=O)N[C@@H](Cc1ccccc1)C(=O)N[C@@H](Cc1c[nH]cn1)C(=O)N[C@@H](CO)C(=O)N[C@@H](CCCCN)C(=O)N[C@@H](CCCNC(=N)N)C(N)=O)[C@@H](C)O` [p21μ-FY150151YF] (H-KRRQTSMTDYFHSKR-NH2) returned a Kd of 96.4 ± 19.6 nM.

For the molecule `CSCC[C@H](NC(=O)[C@H](CCCNC(=N)N)NC(=O)[C@H](CCCNC(=N)N)NC(=O)[C@@H](N)CCCCN)C(=O)N[C@H](C(=O)N[C@@H](CO)C(=O)N[C@@H](CCSC)C(=O)N[C@H](C(=O)N[C@@H](CC(=O)O)C(=O)N[C@@H](Cc1ccccc1)C(=O)N[C@@H](Cc1ccc(O)cc1)C(=O)N[C@@H](Cc1c[nH]cn1)C(=O)N[C@@H](CO)C(=O)N[C@@H](CCCCN)C(=O)N[C@@H](CCCNC(=N)N)C(N)=O)[C@@H](C)O)[C@@H](C)O` [p21μ-Q144M] (H-KRRMTSMTDFYHSKR-NH2), the Kd in assay [1] (setting [5]) turned out to be 41400 nM.

The molecule `CC[C@H](C)[C@H](NC(=O)[C@H](CCCNC(=N)N)NC(=O)[C@@H](NC(=O)[C@H](CCC(N)=O)NC(=O)[C@H](CCCNC(=N)N)NC(=O)[C@H](CCCNC(=N)N)NC(=O)[C@@H](N)CCCCN)[C@@H](C)O)C(=O)N[C@H](C(=O)N[C@@H](CCC(=O)O)C(=O)N[C@@H](Cc1ccc(O)cc1)C(=O)N[C@@H](Cc1ccccc1)C(=O)N[C@@H](Cc1c[nH]cn1)C(=O)N[C@@H](CO)C(=O)N[C@@H](CCCCN)C(=O)N[C@@H](CCCNC(=N)N)C(N)=O)[C@@H](C)O` [p21μ-RD2] (H-KRRQTRITEYFHSKR-NH2) returned a Kd in assay [1] (Affinity KD (nM) (Table S1)) of 20.3 nM.

Take `CSCC[C@H](NC(=O)[C@H](CO)NC(=O)[C@H](CC(=O)O)NC(=O)[C@H](CCC(N)=O)NC(=O)[C@H](CCCNC(=N)N)NC(=O)[C@H](CCCNC(=N)N)NC(=O)[C@@H](N)CCCCN)C(=O)N[C@H](C(=O)N[C@@H](CC(=O)O)C(=O)N[C@@H](Cc1ccccc1)C(=O)N[C@@H](Cc1ccc(O)cc1)C(=O)N[C@@H](Cc1c[nH]cn1)C(=O)N[C@@H](CO)C(=O)N[C@@H](CCCCN)C(=O)N[C@@H](CCCNC(=N)N)C(N)=O)[C@@H](C)O` [p21μ-T145D] (H-KRRQDSMTDFYHSKR-NH2): binding in assay [1] (Affinity KD (nM) (Table S1), SPR steady-state affinity against AfumPCNA, 8x 1 in 2 dilutions from Top Conc, On/Off 40/30 s) was characterised by a dissociation constant (Kd) of 4110 nM.

Regarding `CSCC[C@H](NC(=O)[C@H](CO)NC(=O)[C@H](CCCCN)NC(=O)[C@H](CCC(N)=O)NC(=O)[C@H](CCCNC(=N)N)NC(=O)[C@H](CCCNC(=N)N)NC(=O)[C@@H](N)CCCCN)C(=O)N[C@H](C(=O)N[C@@H](CC(=O)O)C(=O)N[C@@H](Cc1ccccc1)C(=O)N[C@@H](Cc1ccc(O)cc1)C(=O)N[C@@H](Cc1c[nH]cn1)C(=O)N[C@@H](CO)C(=O)N[C@@H](CCCCN)C(=O)N[C@@H](CCCNC(=N)N)C(N)=O)[C@@H](C)O` [p21μ-T145K] (H-KRRQKSMTDFYHSKR-NH2), the dissociation constant Kd in assay [1] (setting [5]) was 10000 nM.

In assay [1] (setting [4]), `CSCC[C@H](NC(=O)[C@H](CO)NC(=O)[C@@H](NC(=O)[C@H](CCC(N)=O)NC(=O)[C@H](CCCNC(=N)N)NC(=O)[C@H](CCCNC(=N)N)NC(=O)[C@@H](N)CCCCN)[C@@H](C)O)C(=O)N[C@H](C(=O)N[C@@H](CC(=O)O)C(=O)N[C@@H](Cc1ccccc1)C(=O)N[C@@H](Cc1ccc(O)cc1)C(=O)N[C@@H](Cc1c[nH]cn1)C(=O)N[C@@H](CO)C(=O)N[C@@H](CCCCN)C(=O)N[C@@H](CCCNC(=N)N)C(N)=O)[C@@H](C)O` [p21μ] returned a Kd of 265 ± 5.9 nM.

On to `CC[C@H](C)[C@H](NC(=O)[C@H](CO)NC(=O)[C@H](CCCNC(=N)N)NC(=O)[C@@H](NC(=O)[C@H](CCCNC(=N)N)NC(=O)[C@H](CCC(N)=O)NC(=O)[C@H](CCCNC(=N)N)NC(=O)[C@H](CCCNC(=N)N)NC(=O)[C@@H](N)CCCCN)C(C)C)C(=O)N[C@@H](C)C(=O)N[C@@H](CO)C(=O)N[C@@H](Cc1ccccc1)C(=O)N[C@@H](Cc1ccccc1)C(=O)N[C@@H](Cc1c[nH]cn1)C(=O)N[C@@H](CO)C(=O)N[C@@H](CCCCN)C(=O)N[C@@H](CCCNC(=N)N)C(N)=O` [p21μafumDNALIG] (H-KRRQRVRSIASFFHSKR-NH2), for which the affinity in assay [1] (setting [6]), expressed as Kd, was 458 ± 118 nM.

The molecule `CC(C)C[C@H](NC(=O)[C@H](CCCNC(=N)N)NC(=O)[C@H](CO)NC(=O)[C@H](CCC(N)=O)NC(=O)[C@H](CCCNC(=N)N)NC(=O)[C@H](CCCNC(=N)N)NC(=O)[C@@H](N)CCCCN)C(=O)N[C@@H](CCC(=O)O)C(=O)NCC(=O)N[C@@H](Cc1ccccc1)C(=O)N[C@@H](Cc1ccccc1)C(=O)N[C@@H](Cc1c[nH]cn1)C(=O)N[C@@H](CO)C(=O)N[C@@H](CCCCN)C(=O)N[C@@H](CCCNC(=N)N)C(N)=O` [p21μafumFEN1] (H-KRRQSRLEGFFHSKR-NH2) displayed a Kd in assay [1] (setting [6]) of 713 ± 56.9 nM.

For `CC[C@H](C)[C@H](NC(=O)[C@H](CC(=O)O)NC(=O)[C@@H](NC(=O)[C@@H]1CCCN1C(=O)[C@H](CCSC)NC(=O)[C@H](CCCNC(=N)N)NC(=O)[C@H](CCCNC(=N)N)NC(=O)[C@@H](N)CCCCN)[C@@H](C)O)C(=O)N[C@@H](CCCNC(=N)N)C(=O)N[C@@H](CC(N)=O)C(=O)N[C@@H](Cc1ccccc1)C(=O)N[C@@H](Cc1ccccc1)C(=O)N[C@@H](Cc1c[nH]cn1)C(=O)N[C@@H](CO)C(=O)N[C@@H](CCCCN)C(=O)N[C@@H](CCCNC(=N)N)C(N)=O` [p21μafumRFC] (H-KRRMPTDIRNFFHSKR-NH2), in assay [1] (setting [6]), binding was put at a Kd of 94.8 ± 8.76 nM.

The molecule p21µ peptide (141-155) had a Kd in assay [2] of 265 nM.

In assay [2], p21µ-FY150151YF peptide showed a dissociation constant Kd of 96.4 nM.

KRRMTSMTDFYHSKR-NH2 [p21µ-Q144M peptide] returned a dissociation constant (Kd) in assay [2] of 41400 nM.

The molecule KRRQTSMTEFYHSKR-NH2 [p21µ-D149E peptide] returned a Kd in assay [2] of 401 nM.

For KRRQTSLTDFYHSKR-NH2 [p21µ-M147L peptide], the equilibrium dissociation constant (Kd) in assay [2] came to 382 nM.

B1: p21µ-afumRFC peptide (peptide)
peptide: KRRMPTDIRNFFHSKR-NH2
notes: also called p21μafumRFC; p21µRFC; source: synthetic peptide, Genscript Biotech (>95%, HPLC)
In turn, B1 came in with a Kd in assay [3] of 295 nM.

Molecule KRRQDSMTDFYHSKR-NH2 [p21µ-T145D peptide] displayed a Kd in assay [2] of 4100 nM.

Regarding KRRQTRITEYFHSKR-NH2 [p21µ-RD2 peptide], the Kd in assay [2] was found to be 20.3 nM.

Molecule KRRQTSITDFYHSKR-NH2 [p21µ-M147I peptide] returned a dissociation constant (Kd) in assay [2] of 37.1 nM.

As to KRRQKSMTDFYHSKR-NH2 [p21µ-T145K peptide], in assay [2], the dissociation constant (Kd) was 10000 nM.

In assay [2], KRRQTSMTDFFHSKR-NH2 [p21µ-Y151F peptide] had a Kd of 167 nM.
